From patent US20180291360 come the findings set out here.

Like-named read-outs stand apart in the source and are kept apart here.

The subject of series [1] is peptide TPAAAR.
Series [2] addresses T1, peptide TPAAAR.
T1 chain: TPAAAR

The target in the next series is T2, peptide WHWLQLKPGQPMY
T2 chain: WHWLQLKPGQPMY

A further series concerns the target T3, peptide KPGQPMY.
T3 chain: KPGQPMY

As to “COROLASE LAP (fungal exo-peptidase, AB Enzymes)”, in the series on peptide TPAAAR [1], the “hydrolysis of the peptide, LC-MS label free quantification” value is given as “show no hydrolysis of TPAAAR within 12 hr”.

B1: TRI032, PepN 2 (aminopeptidase type 2) from Myceliophthora thermophila ATCC 42464 (protein)
chain: GGHGGSSGLGCDSQRPLVSSEKLQSLIKKEDLLAGSQELQDIATAHGGHRAFGSSGHNATVDFLYYTLKALDYYNVTKQPFKEIFSSGTGSLTVDGEDIEAETLTYTPSGSATDKPVVVVANVGCDAADYPAEVAGNIALIKRGTCTFSQKSVNAKAAGAVAAIIYNNAEGKLSGTLGQPFLDYAPVLGITLEAGEALLAKLAGGPVTATLQIDALVEERVTYNVIAETKEGDHSNVLVLGGHTDSVPAGPGINDDGSGTIGMLTVAKALTKFRVKNAVRFAFWSAEEYGLLGSYAYIKSINSSAAELSKIRAYLNFDMIASPNYIYGIYDGDGNAFNLTGPAGSDVIERNFENFFKRKHTPSVPTEFSGRSDYAAFIENGIPSGGLFTGAEVLKTEREAELFGGRAGVAYDVNYHQAGDTVDNLALDAFLLNTKAIADSVATYALSFDGLPRVDGKKRRWDAHRARMLKRSAGSHGHAHLHSGPCGGGASI
On to B1, for which the “hydrolysis of the peptide, LC-MS label free quantification” value with peptide TPAAAR [2] is listed as “can hydrolyze the peptide TPAAAR over time to less than half the concentration within 2 hr incubation”.

B2: TRI063, leucine aminopeptidase 2 from Aspergillus oryzae RIB40 (NCBI Reference Sequence XP_001819545.1) (protein)
chain: RALVSPDEFPEDIQLEDLLEGSQQLEDFAYAYPERNRVFGGKAHDDTVNYLYEELKKTGYYDVYKQPQVHLWSNADQTLKVGDEEIEAKTMTYSPSVEVTADVAVVKNLGCSEADYPSDVEGKVALIKRGECPFGDKSVLAAKAKAAASIVYNNVAGSMAGTLGAAQSDKGPYSAIVGISLEDGQKLIKLAEAGSVSVDLWVDSKQENRTTYNVVAQTKGGDPNNVVALGGHTDSVEAGPGINDDGSGIISNLVIAKALTQYSVKNAVRFLFWTAEEFGLLGSNYYVSHLNATELNKIRLYLNFDMIASPNYALMIYDGDGSAFNQSGPAGSAQIEKLFEDYYDSIDLPHIPTQFDGRSDYEAFILNGIPSGGLFTGAEGIMSEENASRWGGQAGVAYDANYHAAGDNMTNLNHEAFLINSKATAFAVATYANDLSSIPKRNTTSSLHRRARTMRPFGKRAPKTHAHVSGSGCWHSQVEA
For the molecule B2, the “hydrolysis of the peptide, LC-MS label free quantification” value is reported as “show no hydrolysis of TPAAAR within 12 hr” with peptide TPAAAR [2] and “we also find that their enzyme cleaves the peptide down to QPMY (FIG. 7)” with peptide WHWLQLKPGQPMY.

B3: TRI031, PepN 2 (aminopeptidase type 2) from Neosartorya fischeri NRRL 181 (protein)
chain: NGPGWDWKPPVHPKVLPQMIHLWDLMHGAQKLEDFAYAYPERNRVFGGPAHEDTVNYLYRELKKTGYYDVYKQPQVHQWTRADQALTVDGKSYVATTMTYSPSVNVTAPLAVVNNLGCVESDYPADLKGKIALVSRGECPFATKSVLSAKAGAAAALVYNNIEGSMAGTLGGPTSELGPYAPIAGISLADGQALIQMIQAGTVTANLWIDSKVENRTTYNVIAQTKGGDPNNVVALGGHTDSVEAGPGINDDGSGIISNLVVAKALTRFSVKNAVRFCFWTAEEFGLLGSSYYVNSLNATEKAKIRLYLNFDMIASPNYALMIYDGDGSAFNLTGPAGSAQIERLFEDYYKSIRKPFVPTEFNGRSDYEAFILNGIPAGGIFTGAEAIKTEEQAKLFGGQAGVALDANYHAKGDNMTNLNREAFLINSKATAFAVATYANSLDSIPSRNMSTVVKRSQLEQAKKSTPHTHTGGTGCYKDRVEQ
For B3, in the series with peptide KPGQPMY, the “hydrolysis of the peptide (X-Pro bond), LC-MS label free quantification” value was “to KPGQPMY (FIG. 6) and further down to QPMY (FIG. 7)”. Besides, in the series with peptide WHWLQLKPGQPMY, the “hydrolysis of the peptide, LC-MS label free quantification” value is “TRI031 and TRI035 can hydrolyze the peptide WHWLQLKPGQPMY (FIG. 5) to KPGQPMY (FIG. 6) and further down to QPMY (FIG. 7)”.

B4: TRI035, PepN 2 (aminopeptidase type 2) from Aspergillus clavatus NRRL 1 (protein)
chain: NAPGGPGGHGRKLPVNPKTFPNEIRLKDLLHGSQKLEDFAYAYPERNRVFGGQAHLDTVNYLYRELKKTGYYDVYKQPQVHQWTRADQSLTLGGDSIQASTMTYSPSVNVTAPLSLVSKLGCAEGDYSADVKGKIALVSRGECSFAQKSVLSAKAGAVATIVYNNVDGSLAGTLGGATSELGPYSPIIGITLAAGQDLVARLQAAPTEVSLWIDSKVENRTTYNVIAQTKGGDPNNVVALGGHTDSVENGPGINDDGSGVISNLVVAKALTRYSVKNAVRFCFWTAEEFGLLGSNYYVDNLSPAELAKIRLYLNFDMIASPNYALMIYDGDGSAFNLTGPPGSAQIESLFENYYKSIKQGFVPTAFDGRSDYEGFILKGIPAGGVFTGAESLKTEEQARLFGGQAGVALDANYHAKGDNMTNLNHKAFLINSRATAFAVATYANNLSSIPPRNATVVKRESMKWTKREEPHTHGADTGCFASRVKE
With B4, the “hydrolysis of the peptide (X-Pro bond), LC-MS label free quantification” value with peptide KPGQPMY was “to KPGQPMY (FIG. 6) and further down to QPMY (FIG. 7)”. In addition, the “hydrolysis of the peptide, LC-MS label free quantification” value in the series with peptide TPAAAR [2] is “can hydrolyze the peptide TPAAAR over time to less than half the concentration within 2 hr incubation”; with peptide WHWLQLKPGQPMY, “TRI031 and TRI035 can hydrolyze the peptide WHWLQLKPGQPMY (FIG. 5) to KPGQPMY (FIG. 6) and further down to QPMY (FIG. 7)”.
